From article PMC8921277

Biological target: RSV F DS-Cav1 (human respiratory syncytial virus) (UniProt P03420)
Test: BLI; […] (AHC) biosensors, […] (300-0.41 nM); Octet RED96e; […]

UniProt P03420, sequence (P03420 26-513): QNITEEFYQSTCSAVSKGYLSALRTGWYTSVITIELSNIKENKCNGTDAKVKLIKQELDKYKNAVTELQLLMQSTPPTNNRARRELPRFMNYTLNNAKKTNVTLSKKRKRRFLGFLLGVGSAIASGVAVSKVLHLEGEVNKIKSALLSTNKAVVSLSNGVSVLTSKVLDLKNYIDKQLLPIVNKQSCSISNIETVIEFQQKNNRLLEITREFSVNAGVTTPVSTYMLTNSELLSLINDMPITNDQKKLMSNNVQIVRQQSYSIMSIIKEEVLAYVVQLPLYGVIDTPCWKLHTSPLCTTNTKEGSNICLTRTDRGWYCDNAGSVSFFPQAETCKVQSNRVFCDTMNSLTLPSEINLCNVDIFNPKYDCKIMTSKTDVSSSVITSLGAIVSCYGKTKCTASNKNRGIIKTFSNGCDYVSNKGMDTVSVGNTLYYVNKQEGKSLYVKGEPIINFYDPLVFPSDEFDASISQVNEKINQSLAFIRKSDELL
MPE8 Fab, sequence (VH): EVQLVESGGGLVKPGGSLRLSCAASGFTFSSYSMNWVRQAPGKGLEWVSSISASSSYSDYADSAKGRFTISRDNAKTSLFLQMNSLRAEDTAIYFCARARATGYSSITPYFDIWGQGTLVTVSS
MPE8 Fab, sequence (VL): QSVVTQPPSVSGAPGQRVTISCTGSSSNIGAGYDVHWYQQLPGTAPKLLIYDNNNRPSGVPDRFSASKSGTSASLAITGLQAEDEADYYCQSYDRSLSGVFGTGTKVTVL

Question: Which Kd does the source give for MPE8 Fab here?
Answer: < 1 pM

Question: What about the koff of the same substance?
Answer: < 1e-07 s⁻¹

Question: And the kon?
Answer: 360000 M⁻¹ s⁻¹
